Experiment [1] deals with T1, bacterially purified GST-tagged Rheb (UniProt Q15382 1-184).
T1 construct: Rheb, small G protein; The real-time BODIPY assays written under functional used His-tagged Rheb from E. coli instead of the GST-tagged protein; also called GST-Rheb; recombinant GST-tagged WT Rheb; source: E. coli BL21 (DE3), purified (Glutathione Sepharose 4B); not shown: GST, N-terminal, kept
The experiment in a line: pull-down; recombinant Rheb (1 ug) and biotinylated C-tail peptide at a 1:5 molar ratio in 300 uL NETN buffer (40 mM Tris-HCl, 100 mM NaCl, 0.5% NP-40, 1 mM EDTA, 10% glycerol) with 15 uL streptavidin beads, 2 h at 4 °C; SDS-PAGE and immunoblot. To be noted: both partners purified.

Experiment [2] concerns the target T2, bacterially purified Rheb-G63V (UniProt Q15382 1-184, G63V).
T2 construct: source: E. coli BL21 (DE3), purified
The description is as above. To be noted: both partners purified.

Ends that are not written are not given here.

T1 sequence (Q15382 whole entry): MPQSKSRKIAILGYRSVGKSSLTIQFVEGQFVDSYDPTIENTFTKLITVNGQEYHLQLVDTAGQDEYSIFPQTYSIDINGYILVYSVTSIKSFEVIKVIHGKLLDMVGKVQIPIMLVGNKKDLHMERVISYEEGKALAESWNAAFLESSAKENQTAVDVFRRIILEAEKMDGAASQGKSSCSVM
T2 sequence (Q15382 whole entry G63V): as the sequence (Q15382 whole entry) above, with G63V counted along it

B1: biotinylated synthetic peptide of the ATP6AP1 C-tail (12) (peptide)
peptide: HKGPTISLTQIV
modifications: also: biotinylated, position not given here
notes: the last 12 residues of ATP6AP1; also called C12; synthetic C12 peptide; source: synthetic peptide (Genscript ProBio)
With B1, the binding result in experiment [1] is recorded as “binds”.

B2: biotinylated synthetic peptide of the ATP6AP1 C-tail (30) (peptide)
peptide: TYGLHMILSLKTMDRFDDHKGPTISLTQIV
modifications: also: biotinylated, position not given here
notes: ATP6AP1 C-terminal 30 amino acids (C-tail), aa 441-470; also called synthetic C-tail peptide; WT C-tail peptide; source: synthetic peptide (Genscript ProBio)
B2: the binding result in experiment [1] and in experiment [2] was “binds” throughout.

These data come from article PMC11061317 (Cell Research, 2024).
